From publication PMC3670040, “Structure of Lipid Kinase p110β/p85β Elucidates an Unusual SH2-Domain-Mediated Inhibitory Mechanism” (Molecular Cell, 2011)

System: p110β/p85β-nic
Assay: ATPase activity (ADP formation) in the absence of lipid substrate, Transcreener
Assay type: biochemical, mouse
Details: 35 nM complex; Figure 1D
Experimental: Figure 1 Inhibition of p110β by p85-Type Regulatory Subunits and Activation of the Complexes by RTK Phosphopeptide (A) Domain organization of p110β and the regulatory subunits p85α, p85β, and p55γ. The color scheme for the domains is used for all figures, unless otherwise stated. […] The inhibition is released upon addition of the 10 μM PDGFR pY2. […] The y axis is expressed as a change in fluorescence polarization (ΔmP), which is obtained by subtracting the observed polarization for the construct at a given enzyme concentration from the maximum fluorescence polarization for that construct. The plateau in these assays arises due to the competitive nature of the ADP detection system, based on displacement of ADP-Alexa 633 tracer from the ADP^2-antibody by ADP generated during the PI3K assay (see Supplemental Experimental Procedures). All measurements were done in triplicates, and the error bars indicate the standard error of the mean (SEM). […]
The lipid kinase activity was determined using the Transcreener ADP2 FP Assay (BellBrook Labs, Madison, WI) according to manufacturer‟s specifications. This non-radioactive assay measures activity by quantitating the amount of ADP formed. The ADP formed by PI3K competes with fluorescent ADP tracer for binding to an anti-ADP antibody, thereby decreasing fluorescence polarization. […]

B1: p110β-ΔCter/nic: truncation mutant lacking 17 residues from the p110β C terminus; human ΔCter (1-1053) used in cells (protein, UniProt P42338 1-1053, looked up, fragment)
chain: MCFSFIMPPAMADILDIWAVDSQIASDGSIPVDFLLPTGIYIQLEVPREATISYIKQMLWKQVHNYPMFNLLMDIDSYMFACVNQTAVYEELEDETRRLCDVRPFLPVLKLVTRSCDPGEKLDSKIGVLIGKGLHEFDSLKDPEVNEFRRKMRKFSEEKILSLVGLSWMDWLKQTYPPEHEPSIPENLEDKLYGGKLIVAVHFENCQDVFSFQVSPNMNPIKVNELAIQKRLTIHGKEDEVSPYDYVLQVSGRVEYVFGDHPLIQFQYIRNCVMNRALPHFILVECCKIKKMYEQEMIAIEAAINRNSSNLPLPLPPKKTRIISHVWENNNPFQIVLVKGNKLNTEETVKVHVRAGLFHGTELLCKTIVSSEVSGKNDHIWNEPLEFDINICDLPRMARLCFAVYAVLDKVKTKKSTKTINPSKYQTIRKAGKVHYPVAWVNTMVFDFKGQLRTGDIILHSWSSFPDELEEMLNPMGTVQTNPYTENATALHVKFPENKKQPYYYPPFDKIIEKAAEIASSDSANVSSRGGKKFLPVLKEILDRDPLSQLCENEMDLIWTLRQDCREIFPQSLPKLLLSIKWNKLEDVAQLQALLQIWPKLPPREALELLDFNYPDQYVREYAVGCLRQMSDEELSQYLLQLVQVLKYEPFLDCALSRFLLERALGNRRIGQFLFWHLRSEVHIPAVSVQFGVILEAYCRGSVGHMKVLSKQVEALNKLKTLNSLIKLNAVKLNRAKGKEAMHTCLKQSAYREALSDLQSPLNPCVILSELYVEKCKYMDSKMKPLWLVYNNKVFGEDSVGVIFKNGDDLRQDMLTLQMLRLMDLLWKEAGLDLRMLPYGCLATGDRSGLIEVVSTSETIADIQLNSSNVAAAAAFNKDALLNWLKEYNSGDDLDRAIEEFTLSCAGYCVASYVLGIGDRHSDNIMVKKTGQLFHIDFGHILGNFKSKFGIKRERVPFILTYDFIHVIQQGKTGNTEKFGRFRQCCEDAYLILRRHGNLFITLFALMLTAGLPELTSVKDIQYLKDSLALGKSEEEALKQFKQKFDEALRESW
  ATPase activity in the absence of lipid substrate: increased
